We go through two molecules from publication PMC11931385, “Structural and functional analysis of cancer-associated missense variants in the retinoblastoma protein pocket domain” (The Journal of Biological Chemistry, 2025).

No end group written: not given here. TMR = tetramethyl rhodamine dye

What all share (assay): fluorescence polarisation; 25 °C; unlabeled Rb^P titrated against 1.5 nM TMR-E2F1^TD or 7.5 nM TMR-E7^LxCxE; 25 mM Tris pH 8.0, 200 mM NaCl, 1 mM DTT, 0.1% Tween-20; 2 min incubation; quadratic fit; apparent Kd for the variants, Kd for WT
Holding throughout (settings): both partners purified

In test [1] the target is T1, Rb^P S474N (human, UniProt P06400 380-788, S474N).
T1 construct: also called variant 12
T1 sequence (looked up): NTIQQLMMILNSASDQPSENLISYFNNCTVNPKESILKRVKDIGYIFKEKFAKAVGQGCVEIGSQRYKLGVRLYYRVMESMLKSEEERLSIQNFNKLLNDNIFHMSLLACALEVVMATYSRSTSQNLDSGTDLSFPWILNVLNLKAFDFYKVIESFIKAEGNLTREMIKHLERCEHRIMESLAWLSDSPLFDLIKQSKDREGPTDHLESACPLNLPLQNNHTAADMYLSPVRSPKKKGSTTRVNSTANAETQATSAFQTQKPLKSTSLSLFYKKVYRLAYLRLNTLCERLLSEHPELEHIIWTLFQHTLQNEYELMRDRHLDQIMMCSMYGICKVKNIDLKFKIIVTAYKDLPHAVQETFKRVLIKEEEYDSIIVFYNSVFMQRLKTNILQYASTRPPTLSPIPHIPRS

The target in test [2] is T2, Rb^P R621H (human, UniProt P06400 380-788, R621H).
T2 construct: also called variant 42
T2 sequence (looked up): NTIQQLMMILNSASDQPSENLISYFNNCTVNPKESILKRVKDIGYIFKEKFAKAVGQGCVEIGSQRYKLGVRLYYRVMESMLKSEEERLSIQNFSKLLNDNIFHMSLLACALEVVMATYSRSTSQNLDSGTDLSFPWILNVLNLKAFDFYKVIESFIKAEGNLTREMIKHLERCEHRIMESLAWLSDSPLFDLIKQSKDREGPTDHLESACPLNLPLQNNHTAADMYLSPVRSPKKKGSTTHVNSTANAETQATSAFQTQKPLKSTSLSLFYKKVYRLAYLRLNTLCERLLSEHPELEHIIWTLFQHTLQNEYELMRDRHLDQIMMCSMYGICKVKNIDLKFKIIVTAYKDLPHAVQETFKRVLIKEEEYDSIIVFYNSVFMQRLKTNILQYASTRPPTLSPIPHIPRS

Test [3] concerns the target T3, Rb^P L550I (human, UniProt P06400 380-788, L550I).
T3 construct: also called variant 27
T3 sequence (looked up): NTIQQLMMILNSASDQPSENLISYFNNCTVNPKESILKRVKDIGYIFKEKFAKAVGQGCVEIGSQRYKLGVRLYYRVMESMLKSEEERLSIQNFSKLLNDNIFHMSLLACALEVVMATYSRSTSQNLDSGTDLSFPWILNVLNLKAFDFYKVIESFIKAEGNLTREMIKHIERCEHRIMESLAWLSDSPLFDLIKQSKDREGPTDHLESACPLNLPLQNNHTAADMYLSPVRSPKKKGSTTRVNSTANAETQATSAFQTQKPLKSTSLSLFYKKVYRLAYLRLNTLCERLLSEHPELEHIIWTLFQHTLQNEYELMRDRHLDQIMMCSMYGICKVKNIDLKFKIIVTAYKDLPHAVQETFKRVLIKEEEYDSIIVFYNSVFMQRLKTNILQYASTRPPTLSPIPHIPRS

Test [4] addresses T4, Rb^P R556Q (human, UniProt P06400 380-788, R556Q).
T4 construct: also called variant 30
T4 sequence (looked up): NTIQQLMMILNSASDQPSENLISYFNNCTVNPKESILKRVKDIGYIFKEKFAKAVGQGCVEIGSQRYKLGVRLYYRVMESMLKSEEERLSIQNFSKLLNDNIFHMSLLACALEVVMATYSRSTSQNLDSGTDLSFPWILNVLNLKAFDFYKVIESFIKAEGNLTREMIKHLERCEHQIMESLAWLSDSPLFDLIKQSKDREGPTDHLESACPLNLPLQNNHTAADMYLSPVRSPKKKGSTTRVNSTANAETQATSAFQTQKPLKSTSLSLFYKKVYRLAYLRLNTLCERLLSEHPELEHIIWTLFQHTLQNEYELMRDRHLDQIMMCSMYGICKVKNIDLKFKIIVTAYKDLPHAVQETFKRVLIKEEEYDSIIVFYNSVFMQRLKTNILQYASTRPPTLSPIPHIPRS

In test [5] the target is T5, Rb^P R451S (human, UniProt P06400 380-788, R451S).
T5 construct: also called variant 7
T5 sequence (looked up): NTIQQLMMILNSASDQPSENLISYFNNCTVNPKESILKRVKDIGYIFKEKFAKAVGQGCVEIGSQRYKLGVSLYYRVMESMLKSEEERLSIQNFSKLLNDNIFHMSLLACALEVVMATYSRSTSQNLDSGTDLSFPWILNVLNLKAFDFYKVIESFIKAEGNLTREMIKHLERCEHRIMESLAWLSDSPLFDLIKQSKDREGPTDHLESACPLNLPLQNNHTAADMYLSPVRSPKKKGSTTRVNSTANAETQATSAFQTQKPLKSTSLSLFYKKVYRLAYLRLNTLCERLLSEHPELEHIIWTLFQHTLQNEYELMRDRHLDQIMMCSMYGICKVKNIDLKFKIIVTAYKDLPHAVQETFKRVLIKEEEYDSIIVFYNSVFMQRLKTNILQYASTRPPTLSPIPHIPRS

B1: TMR-E2F1^TD, peptide of the E2F1 transactivation domain (peptide)
peptide: {TMR}-GEGIRDLFDCDFGDLTPLD
notes: also called E2F^TD; source: synthetic peptide, bought: GenScript
On to B1, for which the Kd in test [1] was found to be 19 nM; in test [2], 30 nM; in test [3] it was 41 nM; in test [4], 22 nM; in test [5] it was 26 nM.

B2: TMR-E7^LxCxE, LxCxE peptide of the E7 oncoprotein from HPV (peptide)
peptide: DLYCYEQLN
modifications: also: TMR label, position not given here
notes: source: synthetic peptide, bought: GenScript
As to B2, the Kd in test [1] was 8 nM; in test [2], 10 nM; in test [3], 3 nM; in test [4] it was 5 nM; in test [5] it was 9 nM.
